Results published in patent US20240261333A1 (published 2024).

Columns and labels:
Test in all cases: co-IP, anti-FLAG, lysate of cells with C-FLAG B3GNT2; mass spectrometry
[1] = target: T1, FUBP3 (human, UniProt Q96I24 2-572)
T1 construct: also called NP_003925.1 (+2)
T1 sequence (looked up): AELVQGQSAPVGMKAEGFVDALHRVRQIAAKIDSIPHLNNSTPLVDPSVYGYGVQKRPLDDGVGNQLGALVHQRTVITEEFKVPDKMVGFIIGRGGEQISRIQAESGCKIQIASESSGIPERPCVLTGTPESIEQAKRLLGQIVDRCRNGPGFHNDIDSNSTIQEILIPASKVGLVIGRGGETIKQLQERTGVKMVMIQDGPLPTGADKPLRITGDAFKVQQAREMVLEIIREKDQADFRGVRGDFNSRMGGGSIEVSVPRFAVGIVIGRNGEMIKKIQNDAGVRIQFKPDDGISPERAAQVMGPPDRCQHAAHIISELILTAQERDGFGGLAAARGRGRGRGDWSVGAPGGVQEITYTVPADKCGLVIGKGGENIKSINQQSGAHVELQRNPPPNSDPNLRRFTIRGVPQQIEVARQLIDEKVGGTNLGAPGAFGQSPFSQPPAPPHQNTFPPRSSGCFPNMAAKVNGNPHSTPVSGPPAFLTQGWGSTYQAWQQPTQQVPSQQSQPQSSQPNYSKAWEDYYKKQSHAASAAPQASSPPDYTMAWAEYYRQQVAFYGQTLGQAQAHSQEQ
Protocol: (§1) Cells were plated in 10-cm cell culture dishes and grown to 60-80% confluency. For each condition, two biological replicates were harvested for co-IP. Cells were washed with PBS and 4 mL of lysis buffer (20 mM HEPES, 1% Triton X-100, 150 mM NaCl, 1 mM EDTA, and 10% glycerol) containing protease inhibitor cocktail was added. Cells were scraped and lysate was incubated at 4° C. under rotary agitation for 1 h. Lysate was centrifuged at 14,000×g for 10 min at 4° C. Supernatant was transferred to a new tube and an aliquot was taken as the input. […] For Western blots, 10 μg/mL Chicken Anti-FLAG (Aves labs ET-DY100) and IgY control (R&D Systems AB-101-C) antibodies were biotinylated (Thermo Fisher Scientific 90407) and added to the respective conditions. Lysates with antibodies were incubated at 4° C. under rotary agitation overnight. For each mL of lysate, 50 μL of Pierce Protein A/G Magnetic Beads (Mass spectrometry; Thermo Fisher Scientific 88803) or Pierce Streptavidin Magnetic Beads (Western blot; Thermo Fisher Scientific 88817) was washed twice with lysis buffer. Lysates with antibodies were added to the beads and incubated at 4° C. under rotary agitation for 4 h. Beads were washed with lysis buffer 3 times and resuspended in lysis buffer for storage.
(§2) Magnetic beads were resuspended in 100 mM Tris pH 7.8, reduced, alkylated and digested with trypsin at 37° ° C. overnight. This solution was subjected to solid phase extraction to concentrate the peptides and remove unwanted reagents followed by injection onto a Shimadzu HPLC with fraction collector. Eight fractions were collected and after concentration were injected on a Waters NanoAcquity HPLC equipped with a self-packed Aeris 3 μm C18 analytical column 0.075 mm by 20 cm, (Phenomenex). Peptides were eluted using standard reverse-phase gradients. The effluent from the column was analyzed using a Thermo Orbitrap Elite mass spectrometer (nanospray configuration) operated in a data dependent manner for 54 minutes. The resulting fragmentation spectra were correlated against the known database using Proteome Discover 1.4 (Thermo Fisher Scientific).

[2] = target: T2, CAT (human, UniProt P04040 2-527)
T2 construct: also called NP_001743.1
T2 sequence (looked up): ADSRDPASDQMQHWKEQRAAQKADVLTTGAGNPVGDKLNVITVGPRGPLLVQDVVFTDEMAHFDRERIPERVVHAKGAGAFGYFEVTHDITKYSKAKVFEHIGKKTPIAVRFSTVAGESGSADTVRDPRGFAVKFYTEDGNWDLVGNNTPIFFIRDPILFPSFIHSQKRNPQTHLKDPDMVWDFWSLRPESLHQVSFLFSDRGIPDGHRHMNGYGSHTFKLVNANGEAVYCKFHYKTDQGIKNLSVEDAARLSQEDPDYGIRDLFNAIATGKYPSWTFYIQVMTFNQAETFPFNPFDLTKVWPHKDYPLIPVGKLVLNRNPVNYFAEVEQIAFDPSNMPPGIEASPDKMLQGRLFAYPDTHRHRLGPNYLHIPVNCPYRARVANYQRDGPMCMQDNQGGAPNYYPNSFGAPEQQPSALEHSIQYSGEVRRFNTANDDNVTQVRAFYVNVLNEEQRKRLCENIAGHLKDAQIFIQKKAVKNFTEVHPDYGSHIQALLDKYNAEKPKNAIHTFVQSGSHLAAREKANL
Protocol: as §1, §2

[3] = target: T3, KRT6B (human, UniProt P04259 2-564)
T3 construct: also called NP_00546.2
T3 sequence (looked up): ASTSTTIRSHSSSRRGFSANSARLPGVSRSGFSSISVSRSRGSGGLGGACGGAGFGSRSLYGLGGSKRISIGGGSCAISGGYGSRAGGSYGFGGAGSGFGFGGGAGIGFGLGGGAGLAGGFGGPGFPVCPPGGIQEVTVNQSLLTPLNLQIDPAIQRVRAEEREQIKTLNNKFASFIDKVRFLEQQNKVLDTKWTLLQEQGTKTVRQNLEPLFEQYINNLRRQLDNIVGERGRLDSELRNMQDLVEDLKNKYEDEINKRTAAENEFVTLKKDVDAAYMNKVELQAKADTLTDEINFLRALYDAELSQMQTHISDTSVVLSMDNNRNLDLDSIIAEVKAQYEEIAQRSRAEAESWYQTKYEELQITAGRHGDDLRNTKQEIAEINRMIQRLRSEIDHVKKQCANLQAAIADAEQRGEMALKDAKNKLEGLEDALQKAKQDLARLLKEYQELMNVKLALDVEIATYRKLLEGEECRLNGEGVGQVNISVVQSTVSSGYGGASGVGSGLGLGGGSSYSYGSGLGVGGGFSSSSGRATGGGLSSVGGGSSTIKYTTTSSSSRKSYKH
Protocol: as §1, §2

co-IP mass spectrometry count [1]: 9
co-IP mass spectrometry count [2]: 0
co-IP mass spectrometry count [3]: 331
B1: C-terminal FLAG tagged B3GNT2 (enzyme, human, UniProt Q9NY97 1-397, looked up)
chain: MSVGRRRIKLLGILMMANVFIYFIMEVSKSSSQEKNGKGEVIIPKEKFWKISTPPEAYWNREQEKLNRQYNPILSMLTNQTGEAGRLSNISHLNYCEPDLRVTSVVTGFNNLPDRFKDFLLYLRCRNYSLLIDQPDKCAKKPFLLLAIKSLTPHFARRQAIRESWGQESNAGNQTVVRVFLLGQTPPEDNHPDLSDMLKFESEKHQDILMWNYRDTFFNLSLKEVLFLRWVSTSCPDTEFVFKGDDDVFVNTHHILNYLNSLSKTKAKDLFIGDVIHNAGPHRDKKLKYYIPEVVYSGLYPPYAGGGGFLYSGHLALRLYHITDQVHLYPIDDVYTGMCLQKLGLVPEKHKGFRTFDIEEKNKNNICSYVDLMLVHSRKPQEMIDIWSQLQSAHLKC
notes: Overexpressed in cells and pulled down from the lysate with mouse anti-FLAG antibody; also called C-FLAG B3GNT2; C-term flag; not shown: C-terminal FLAG tag
